The values below come from paper PMC12487888, “Molecular basis of the biogenesis of a protein organelle for ethanolamine utilization” (Science Advances, 2025).

First the molecules themselves.
T1: EutQ Q75A (S. Typhimurium LT2, UniProt Q9ZFV5 1-229, Q75A)
T1 construct: EutQ of S. Typhimurium LT2 with the point mutation Q75A; also called Q75A mutant
T1 sequence: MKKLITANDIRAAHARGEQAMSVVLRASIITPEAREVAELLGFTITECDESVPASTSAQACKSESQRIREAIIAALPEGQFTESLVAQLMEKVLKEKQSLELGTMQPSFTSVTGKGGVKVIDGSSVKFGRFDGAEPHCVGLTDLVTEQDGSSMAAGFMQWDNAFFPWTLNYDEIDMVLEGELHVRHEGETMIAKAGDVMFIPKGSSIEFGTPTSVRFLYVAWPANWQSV

T2: EutQ (residues 1 to 229) (S. Typhimurium LT2, UniProt Q9ZFV5 1-229)
T2 construct: About 25 kDa per monomer, about 50 kDa dimer by SEC-MALS; Uniformly 15N-labelled for NMR; also called full-length EutQ; WT EutQ; source: E. coli BL21 (DE3) star, purified (His-trap, SEC on S200 Superdex)
T2 sequence: T1 sequence with A75Q

T3: EutQ N-terminal domain fused with GB1 at its C terminus (EutQ^1–99-GB1) (S. Typhimurium LT2, UniProt Q9ZFV5 1-99)
T3 construct: EutQ of S. Typhimurium LT2, N-terminal region, residues 1-99 (helices H1 to H4); Cloned into pETM11; Order of the chain: EutQ 1-99, hexahistidine tag, GB1; Uniformly 15N-labelled (15N, 13C for assignment) for NMR; also called N-terminal region of EutQ; source: E. coli BL21 (DE3) star, purified (His-trap, SEC on S200 Superdex)
T3 sequence: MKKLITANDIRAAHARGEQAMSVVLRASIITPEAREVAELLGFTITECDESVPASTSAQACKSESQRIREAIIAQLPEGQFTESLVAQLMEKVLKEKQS

T4: EutQ-strep (S. Typhimurium LT2, UniProt Q9ZFV5 1-229)
T4 construct: EutQ of S. Typhimurium LT2; the eutQ gene was inserted into pET-22b (+); source: E. coli BL21(DE3), purified (Strep-tag XT, gel filtration); not shown: Strep tag, C-terminal, kept
T4 sequence: T1 sequence with A75Q

T5: EutQ-his (S. Typhimurium LT2, UniProt Q9ZFV5 1-229, dye on the His tag (His-tagged target proteins were labelled with dyes))
T5 construct: EutQ of S. Typhimurium LT2; the eutQ gene was inserted into pET-22b (+); source: E. coli BL21(DE3), purified (Ni-NTA, gel filtration); not shown: His tag, C-terminal, kept
T5 sequence (looked up): T1 sequence with A75Q

B1: EutC^1–20 encapsulation peptide (peptide)
peptide: MDQKQIEEIVRSVMASMGQD
notes: EutC of S. Typhimurium LT2, N-terminal encapsulation peptide, residues 1-20; also called EutC peptide; EP of EutC; source: synthetic peptide (GenicBio)
B2: EutM-his (natural protein)
chain: MEALGMIETRGLVALIEASDAMVKAARVKLVGVKQIGGGLCTAMVRGDVAACKAATDAGAAAAQRIGELVSVHVIPRPHGDLEEVFPISFKGDSNI
modifications: dye on the His tag (His-tagged target proteins were labelled with dyes)
notes: shell protein EutM of S. Typhimurium LT2; the eutM gene was inserted into pET-22b (+); source: E. coli BL21(DE3), purified (Ni-NTA, gel filtration); not shown: His tag, C-terminal, kept
B3: EutL-strep (natural protein, S. Typhimurium LT2, UniProt P0A1C9 1-219, looked up)
chain: MPALDLIRPSVTAMRVIASVNDGFARELKLPPHIRSLGLITADSDDVTYIAADEATKQAMVEVVYGRSLYAGAAHGPSPTAGEVLIMLGGPNPAEVRAGLDAMVASIENGAAFQWANDAENTAFLAHVVSRTGSYLSSTAGIALGDPMAYLVAPPLEATFGIDAAMKSADVQLVTYVPPPSETNYSAAFLTGSQAACKAACNAFTDAVLDIARNPVQRA
notes: shell protein EutL of S. Typhimurium LT2; the eutL gene was inserted into pET-22b (+); not shown: Strep tag, C-terminal, kept

Settings in all cases: both partners purified
For one assay, the target named is T1, EutQ Q75A. Put plainly: ITC; point mutants of EutQ against EutC^1–20 (figs. S25 and S26); the method is not given, the Kd is compared with the ITC Kd of WT EutQ. (In general: Isothermal titration calorimetry measures the heat released or taken up as one component is titrated into another.)
For another assay, the target named is T2, EutQ (residues 1 to 229). Briefly: ITC; 20 μM protein in the cell, 200 to 400 μM peptide in the syringe; 19 injections, 25°C; 20 mM Na2HPO4, 20 mM NaCl, pH 6.5.
Assay [1] has as its target T3, EutQ N-terminal domain fused with GB1 …. The assay is described as above.
Another assay addresses T4, EutQ-strep. Briefly: MST; His-tagged target protein labelled with dye, 0.25 μM; unlabelled strep-tagged protein in twofold dilution series (EutL up to 24 μM, EutQ up to 108 μM); Monolith NT.115, 25°C, 60% excitation power.
The assay “EutL-strep” concerns the target B3. Described as above.
The target of a further assay is T5, EutQ-his. The description is as above.

Where a chain is given by its changes, count along the chain named.

Broadly, the Kd is the constant that tells how readily two partners part at equilibrium. A higher Kd goes with a looser complex. As usually defined, the stoichiometry N is a count of units in the complex or per binding partner. B1 displayed a Kd with EutQ Q75A of 21.5 µM. Further, in the assay with EutQ (residues 1 to 229), the Kd is 6.35 µM, the dH is -9.24 ± 0.01 kcal/mol and the “stoichiometry N” value was approximately 2. In assay [1], binding was characterised by a dissociation constant (Kd) of 7.6 µM, the dH was -9.63 ± 0.48 kcal/mol and the “stoichiometry N” value was approximately 1.

As to B2, the binding result with EutQ-strep and with EutL-strep was “binds” in each case.

In the case of B3, the binding result in the assay with EutQ-his is “binds”.
